Reference: patent publication US20220195015A1 (published 2022)
Where a chain is given by its changes, count along the chain named.

B1: C064 (antibody, V domains shown)
VH: EVQLLESGGDLVQPGGSLRLSCAASGFTFSNYAMSWVRQAPGKGLEWVSAISGSGGNTYYADSVKGRFTISRDNSKNTLYLQMNSLRAEDTAVYYCAKAVHYGGNSDRRFSEPSAPFDYWGQGTLVTVSS
VL: QSALTQPASVSGSPGQSITISCTGTSSDVGSYNLVSWYQQHPGKAPKLMIYEGSKRPSGVSNRFSGSKSGNTASLTISGLQAEDEADYYCCSYAGSSTPYVFGTGTKVTVL
B2: C089 (antibody, V domains shown)
VH: QVQLVESGGGVVQPGRSLRLSCAASGFTFRTYAMHWVRQAPGKGLEWVAVILSDGNNKYYADSVKGRFTISRDNSKNTLYLQMNSLRAEDTAIFYCAREQEANYYDISGYYHWGESLGYWGQGTLVTVSS
VL: DIQLTQSPSFLSASVGDRVTITCRASQGISSYLAWYQQKPGKAPKLLIYGASTLQSGVPSRFSGSGSGTEFTLTISSLQPEDFASYYCQKVNSHPPGLTFGGGTKVEIK
B3: C090 (antibody, V domains shown)
VH: B2 VH
VL: B2 VL with L46F, H94Y
B4: C085 (antibody, V domains shown)
VH: QVQLQESGPGLVKPSETLSLTCTVSGDSMSSYFWTWIRQPPGKGLECIGYFYPSGSTNYNPSLKSRVTISIDTSKNQFSLKLSSVTAADTAVYYCARLKQQLVGFGWFDPWGQGTLVTVSS
VL: QSVLTQPPSVSGAPGQRVTISCTGSSSNIGADYDVHWYQQFPGTAPKVLIYANTNRPSGVPERFSGSKSGTSASLAITGLQAEDEADYYCQSYDHSLNWVFGGGTKLTVL
B5: C086 (antibody, V domains shown)
VH: B4 VH with M29I, S31T, T35A, K43R, Y50S, Y52F, N58Y, I71V, S83N, T115S
VL: B4 VL with S26I, D34E, Q39V, G66A, S96R, N98H
B6: C062 (antibody, V domains shown)
VH: EVQLVESGGGLVKPGGSLRLTCAASGFTFSTYSMNWVRQAPGKGLEWVSSISSSSSYIYYADSVKGRFTISRDNAKNSLYLQMNSLRAEDTAVYYCARERGYYGGKTPPFLGGQGTLVTVSS
VL: NFMLTQPHSVSESPGKTVTISCTGSSGSIASNYVQWYQQRPGSAPTTVIYEDNQRPSGVPDRFSGSIDSSSNSASLTISGLKTEDEADYYCQSYDSSNYWVFGGGTKLTVL
B7: C521 (antibody, V domains shown)
VH: EVQLVESGGGLVRPGGSLTLSCVASGFTVGSNFMSWVRQAPGKGLEWVSLIYNSGGTHYADSVKGRFTISRDRSKNTLYLQMNSLRAEDTAIYYCANHGYYYYMDVWGKGTTVTVS
VL: QSALTQPASVSGSPGQSITISCTGTGSDIGAYNYVSWHQHHPGKAPKLIIYDVSNRPSGVSNRFSGSKSGNTASLTISGLQAEDEADYYCTSYTNTTTPWVFGGGTKVTVL
B8: C060 (antibody, V domains shown)
VH: EVQLVESGGGLVQPGGSQRLSCAASGFTVSSNYMSWIRQAPGKGLEWVSVIYSGGSAYYVDSVKGRFTISRDNSKNTLYLQMNSLRPEDTAVYYCARIANYMDVWGKGTTVTVSS
VL: EIVMTQSPATLSVSPGERATLSCRASQSVSSHLAWYQQKPGQAPRLLIYGASTRATGIPTRFSGSGSGTEFTLTISSLQSEDFAVYYCQQYNNWPPLTFGGGTKVEIK
B9: C032 (antibody, V domains shown)
VH: EVQLVQSGAEVKKPGESLKISCKGSGYSFTSYWIGWVRQMPGKGLEWMGIIYPGDSDTRYSPSFQGQVTISADKSISTAYLQWSSLKASDTAMYYCARGVAVDWYFDLWGRGTLVTVSS
VL: QSVLTQPPSVSGAPGQRVTISCTGSSSNIGAGYDVHWYQQLPGTAPKLLIYGNSNRPSGVPDRFSGSKSGTSASLAITGLQAEDEADYYCQSYDSSLSALYVFGTGTKVTVL
B10: C080 (antibody, V domains shown)
VH: B9 VH with K19N, G24A, S31I, G35A, M40L, S84R, T91S, M93V
VL: B9 VL with T23A, Y33F, H36Y, S54N, Y93S, D94G, S96V, A99D
B11: C091 (antibody, V domains shown)
VH: QVQLVQSGAEVKKPGSSVKVSCKASGGTFSSYTISWVRQAPGQGLEWMGRIIPILGIANYAQKFQGRVTITADKSTSTAYMELSSLRSEDTAVYYCARDSGYSGYGSTYYMDVWGKGTTVTVSS
VL: QSVLTQPPSVSGAPGQRVTISCTGSSSNIGAGYDVHWYQQLPGTAPKLLIYGNSNRPSGVPDRFSGSKSGTSASLAITGLQAEDEADYYCQSYDSSLSGSVFGTVTKVTVL
B12: C092 (antibody, V domains shown)
VH: B11 VH with T28S, S30T, S31N, Y32H, T33F, I57T, K63N, T69M, I70M
VL: B11 VL with S26N, T44A, S54N, G70D, A82V, G99D, T104S, V105G
B13: C519 (antibody, V domains shown)
VH: QVQLQESGPGLVKPSETLSLTCAVSGGSISSYYWSWIRQPPGKGLEWIGYIDTSGSTNYNPSLKSRVTMSVDTSKNQFSLNVNSVTAADTAVYFCGVCAGDCYAASVFDYRGQGTLVTVSS
VL: DIQMTQSPSSLSASVGDRVTITCQASQDIIFYLNWYQQKPGKAPKLLIYDASNLKTGVPSRFSGSGSGTDFAFTISSLQPEDIATYYCQQYDNLPLTFGGGTKVEIK
B14: C518 (antibody, V domains shown)
VH: EVQLVESGGGLIQPGGSLRLSCAASGITVSSNYMSWVRQAPGKGLEWVSVMYAGGSSFYADSVKGRFTISRDNSKNTLYLQMNSLRVEDTAVYYCARDLIALGVDVWGQGTTVTVSS
VL: DIQLTQSPSFLSASVGDRVTITCRASQGISSYLAWYQQKPGKAPKLLIYAASTLQSGVPSRFSGSGSGTEFTLTISSLQPEDFATYYCQLLNSYPMCSFGQGTKLEIK
B15: C066 (antibody, V domains shown)
VH: EVQLVESGGGLIQPGGSLRLSCAASGLLVSRNYMTWVRQAPGKGLEWVSVIYSGGSTFYADSVRGRFTISRDNSKNTLYLQMDSLRAEDTAVYYCARDVGDYYGMDVWGQGTTVTVSS
VL: B14 VL with S9A, I29M, S31N, K45N, A50T, M96Q, C97L, S98T, Q101G, L105V
B16: C094 (antibody, V domains shown)
VH: QVQLQESGPGLVKPSETLSLTCNVSGVSISTDYWSWIRQPPGKGLEWIGYIYYSGNTKDYNPSLKSRVTISVDTSKNQFSLMLSSVTAADTAVYYCARHYDILTSLSWFDPWGQGTLVTVSS
VL: QSVLTQPPSVSAAPGQKVTISCSITNSNLGNIYVSWYQQLPGTAPKLLIYGNNKRPSGIPDRFSGSKSGTSATLGITGLQTGDEAHYYCGTWDSSLSANWVFGGGTKLTVL
B17: C063 (antibody, V domains shown)
VH: EVQLVQSGAEVKKPGDSLKISCKASGYSFTRYWIGWVRQMPGKGLDWMGIIYPGDSDTRYSSSFQGQVTISADKSISTAYLQWSSLKASDTSLYYCVRRASSTNFEFWGQGTLVTVSS
VL: SYELTQPPSVSVAPGQTATITCGGNNIGSKTVHWYQQKPGQAPVVVVYDDSDRPSGIPERFSGSKSGSTATLTITRVEAGDEADYYCQVWDSTSDHYVFGTGTKVAVI
B18: C069 (antibody, V domains shown)
VH: QVQLVQSGAEVKKPGSSVNVSCKASGGTFSTYAIHWVRQAPGQGLEWMGGIIPLFHTANYAQKFQGRVTITADESTSTAYMELSSLRSEDTAMYYCAINTQWDLVPRWGRGTLVTVSS
VL: EIVLTQSPGTLSLAPGERATLSCRASQSVNSNYLAWYQQKPGQAPRLLIYGASSRATGIPDRFSGSGSGTDFTLTISRLEPEDFAVYYCQQYGFSLYSFGQGTKLEIK
B19: C088 (antibody, V domains shown)
VH: QVQLVQSGAEAKKPGASVKVSCKTSGYTFTNYFMHWVRQAPGQGPEWMGIIDSSDGGASYAQKFQGRVTMTRDTSTSTVYMELRSLKFEDTAVYYCARASTSTTSWSDALSLGSWGQGTLVTVSS
VL: QSVLTQPPSVSGAPGQRVTISCTGSSSNIGGGSVVHWYQQLPGTAPKLLIYANSNRPSGVPDRFSGSKSGTSASLAIAGLQAEDEADYYCQSWDNGLSASGVVFGGGTKLTVL
B20: C083 (antibody, V domains shown)
VH: EVQLVESGGGLVKPGGSLRLSCAASGFTFSSYSMNWVRQAPGKGLEWVSSISSSTSYIYYADSVKGRFTISRDNAKNSLYLQMNSLRAEDTAVYYCARERYGDNWGQGTLVTVSS
VL: QLVLTQSPSASASLGASVKLTCTLSSGHSSYAIAWHQQQPEKGPRYLMSLNSDGSHSKGDGIPDRFSGSSSGAERYLTISSLQSEDEADYYCQTWGPWVFGGGTKLTVL
B21: C067 (antibody, V domains shown)
VH: VQLVESGGGVVQPGRSLRLSCAASGFSFRIFGMNWVRQAPGKGLDWVAGISHDGSDKYFADSVKGRFTISRDNSKNTLYLQMNSLRADDTAVYYCARDMEVDYYDRSGHYHVFHAFDIWGQGTMVTVSS
VL: DIVMTQSPDSLAVSLGARATINCKSSQSILYSSDNKSSLAWYQQKPGHPPKLLIYWASTRESGVPDRFSGSESGTDFTLTISNLQGEDVAVYYCQQYYSIPRSFGQGTKLEIK
B22: C065 (antibody, V domains shown)
VH: QVQLQESGPGLVKPSQTLSLTCTVSGGSISSSNYYWSWIRQHPGKGLEWIGYIDYSGGTYYNPSLKSRVTISVDTSKNQFSLKLSSVTAADTAVYYCARVSTTVTTYLVGGFDIWGQGTMVTVSS
VL: IRMTQSPSSLSASVGDRVTITCQASQDITNYLNWYQQKPGKAPKLLLYDASNLETGVPSRFSGSGSGTDFTFTISSLQPEDIATYYCQQYDNLPWTFGQGTKVEIK
B23: C068 (antibody, V domains shown)
VH: QVQLVESGGGVVQPGRSLRLSCVASGFSFSTYGMHWVRQAPGKGLEWVALIWSDGSNKYYGDAAEGRFTISRDNSNNTLYLQMNNLRAEDTALYYCARDHSSSSFVYYYYMDVWGKGTTVTVSS
VL: QSALTQPRSVSGSPGQSVTISCTGTSSDIGGYNYVSWYQQHPDKAPKFIIFDVSKRPSGVPDRFSGSKSGNTASLTISGLQAEDEADYYCCSYAGPYPYVFGTGTKVTVL
B24: C059 (antibody, V domains shown)
VH: QVQLVQSGAEVKKPGASIKVSCKASGYTFTDYSMHWVRQAPGQGLEWMGWINPNSGGTKYAQKFQGWVTMTRDMSITTVYMELTRLRSDATAVFYCARGPLFHKLVYDSWTGYHDGFDIWGQGTMVTVSS
VL: QSALTQPASVSGSPGQSITISCTGTSSDVGGYNYVSWYQHYPGKAPKLMIYEVTHRPSGVSNRFSGSKSGNTASLTISGLQAEDEADYYCSSSTNSSTWVFGGGTKMTVL

Target: SARS-CoV-2 receptor binding domain (RBD), wild type (SARS-CoV-2, UniProt P0DTC2 319-539)
Assay: ELISA, RBD protein coated, mAb titrated

| Binder | EC50 [ng/mL] |
| --- | --- |
| B1 | 363 |
| B2 | 4.69 |
| B3 | 6.22 |
| B4 | 2.38 |
| B5 | 3.01 |
| B6 | 4.69 |
| B7 | 6.9 |
| B8 | 43.5 |
| B9 | 17.3 |
| B10 | 1.97 |
| B11 | 89.5 |
| B12 | 7.07 |
| B13 | 1.06 |
| B14 | 1.13 |
| B15 | 4.2 |
| B16 | 1.67 |
| B17 | 414 |
| B18 | 381 |
| B19 | 2.44 |
| B20 | 25.1 |
| B21 | 6.98 |
| B22 | 29.1 |
| B23 | 5.46 |
| B24 | 1.88 |
